experiment: soluble on expression in E. coli; label from the status in PepcDB or PDB records

| Sequence | soluble on expression in E. coli |
| --- | --- |
| MGSDKIHHHHHHCKDNDDATGDFDPNKPVVISEFSPKEGGLGTRMLLYGENFGSDISKIKVTIGGQDSKVVGAKGKSLYCVVPAKAYDGDIKLSILNDEGEEIANTEANEKFVYQKKMLVTTFLGTMYDGNTKYDLKDGPFDDCGGFGGAVWLSFDPKNHNHLYLVGEQHPTRLIDFEKEYVSTVYSGLSKVRTICWTHEADSMIITNDQNNNDRPNNYILTRESGFKVITELTKGQNCNGAETHPINGELYFNSWNAGQVFRYDFTTQETTPLFTIQDSGWEFHIQFHPSGNYAYIVVVNQHYILRSDYDWKTKRLTTPYIVCGQQGAKDWVDGVGKKARMHAPRQGTFVKNPAYKGSSDEYDFYFCDRENHCIRILTPQGRVTTFAGRGSNGTSGYNDGDLRQEARFNHPEGIVYDEERECFFIGDRENRRIRKIGYEE | not soluble |
| MGSDKIHHHHHHCSEKTTTEIPETELKNISCSTQLVTHSSAQTRGAAPTTLNENDFVLYAFKKNGEGNFSYEEAKHETSVIDGGVWKYNAAFPVGTYKFIAFYNLDEKNQAALNTTITGISNQTWENILKSIVITHFPSATGQYHEDMNEIFCGKTTDEIDISSGIGGDDNEIKIKLTLERIVSRIDIKFIKVASDDDHIEVPYATGNIFGGTGTTSLTSLIFTSSNVPLKYNLNGENPDYVTGVQCQVTYAAPSFQYGEANADAVKALDYQPFPQNADAINNNMETNIKKGIAKGGAYFMGSYLLPFPSSSQTLNANIQLNKANQERTIKVPGFAVTSNYVSIITVRLKSSTDAGDNNNGNDDEHLFNPKSTFIVEIEKTYVGIHNTNVDVE | not soluble |
| MGSDKIHHHHHHDQEPPLYVNENDIFTSPTRIEATLNGLYAAIKNTGTKSLMGGKSYLVFDNRGDDVINISNNLVTLFNTYNMNVGITDAENADTWTYAYLAINKVNTFLQSLEGAREVAGENYDRYVQEAKFVRALAYYYLNNLYPTPYSVNPDAKSVPLRLTAEAGTENNNMPRSTVKQIYEHILSDLENISALDTEVNTYTGVTHATQAAANMLKMRVYMAMNEWDKAITAGELVTGYSLPEDVTLIYKAPYFSQESIFSLPMADTNIPNTQQSLAEYYYDGKIMLIDTKSGIMSKPDYSLATDKRIIAFKGEKDLLMKFTDAKTKLQWVPIFRYAETLLDLAECYANKAGGEATAKSLLKQVRGRSVDAATDPLNIDNLSGDALKEAIYNEKRLEFIGEGIRGIDIMRRGEHFIKVGENETINVGPSDEKYTWPIPQVELLLNKDINK | not soluble |
| MGSDKIHHHHHHDTEKKVSEEGFVFTTVKENPITSVKNQNRAGTCWCYSSYSFLESELLRMGKGEYDLSEMFTVYNTYLDRADAAVRTHGDVSFSQGGSFYDALYGMETFGLVPEEEMRPGMMYADTLSNHTELSALTDAMVAAIAKGKLRKLQSDENNAMLWKKAVAAVHQIYLGVPPEKFTYKGKEYTPKSFFESTGLKASDYVSLTSYTHHPFYTQFPLEIQDNWRHGMSYNLPLDEFMEVFDNAINTGYTIAWGSDVSESGFTRDGVAVMPDDEKVQELSGSDMAHWLKLKPEEKKLNTKPQPQKWCTQAERQLAYDNYETTDDHGMQIYGIAKDQEGNEYYMVKNSWGTNSKYNGIWYASKAFVRYKTMNIVVHKDALPKAIKAKLGIK | not soluble |
| MGSDKIHHHHHHEEGTSPINENTSNLPVSATADAQLKFAKLLSQAASGSIEVRNFLKKEALVQFDNDYDIFYPLIKDKKVFGNQSFRDILLSYCKEENELSQIEQSLPLLNIMVPDLTLFWDFNATTWDTSDKEISVLCRDDKNNTLYENGENIGNMTNGDIPGFPCLVVKNNERMKITSVNTRSGEATYEFISDAFDGSKKVQTRHYDADNDLEATEDLNKYVSKDVVATAINAWREFKNVPNACQRDYIYYGINKTNTPGSLNRNIREKLYRFRISATAFGRIADADGDQRLQDLTQTKRYLSNEEILQNIWTDGNFEFRFKSYIAGETNKDAMEHLLTFSVKAKDVFSIEKIHLHHKNGTAFRQSKNFYSVDINNLRSKWIYPEKLEPNKDNQVFTLPWDLYNKALSIHMYVEEFDVDQTIEKTITVVNEFTNKADFSIEGGGSIDSVKLSAKLGYGFSHTNTTTSSTKVTTTVGSDELGTLSFFFYDPIIRAESNNTYKLYDVSSGDVTATILPINLIITR | not soluble |
| MGSDKIHHHHHHEILKVLRKNNDFQNWEEIKNRLHPIIIKHVEGEPVYQFFDTLNDNSFEKNGQLISLSTQPINSFVPYHIHNYVEMMVVLSGSCVIKTANEAITLNENEIIIIGCKTIHKVEPIDDKTIMIKIALKRAAFSLEDLVFLTHSHNAQSVSSIVFSLLSSDDSHGAFNVFRTHHDVHVVNKIYNIISEYYCPDDYSNQIIKLEILELFIRLIRIASKDAVFQTQKEVQNNNEIDLLTLLLYIERNYKTINLKSMAKYFNFNPNYLSSILREKTGYTFIKLVHLQRINVAAEYLALTNTPVEGISLAVGYENPSYFYKMFKKYMGCSPKEYRQKQIAG | not soluble |
| MGSDKIHHHHHHEITDGVVRIGVLNDQTGVYAGLAGPGSVWAAKKAVQDFAPEKHGLKVEIVAADHQNKPDVGASIARRWFDVDKVDAIVDVPTSSVVLAVNQVAKEKNKVMIVTGGGTSDLTGKACTPNAIHWAYDTWALANGTGKAVVKSGGKSWFFVTADYAFGHSLERDTEAVVVKNGGKVLGKVRHPFPGNDFSSYLLQAQASKAQVVGLANAGGDTIGAVKQAAEFGVTAGGQKLAGLLVFSSDVQALGLKAAQGLLLSETWYWDMTDENRKFGKEFAAANNGKFPTMAQAGTYSAVIHYLKAVAAMKADGDGAAVVAKMKAMPTDDKLFGKGSIREDGRKIHPLYLFEVKKPSESKYAGDFYKLIATIPATEAFRPMEEGGCPLIGKKAS | not soluble |
| MGSDKIHHHHHHELVIDITRGVREPMPIAIPVFGGTDAQSSAMGRDVVGVVSNDLQGSGLFRVLDPAAYIQSLPNLAVQPQFADWRAINAQALVQGEVQPQGDGRLRVAFRLWDVFSGQQVVGRAFLTQGDNWRRVSHIIADEIYKAITGEEGYFDTRVVYVAETGPKTNRVKKLAIMDQDGANQRNLTNGESMVLTPRFSPTAQEITYLSYYNSVPRVYLFNIETGRRELLGDFPGMTFAPRFSPDGNKVIMSMALDGNTEIYEMDLRTRRSSRLTNHPSIDTSPSYAPDGRQITFNSDRGGAQQIYVMNADGSGVQRISFGDGRYATPVWSPRGDLIAFTKLKGGRFFIGAMRPDGSGEKILTEGFLVEGPTWAPNGRVLMFFRQDPNGRTTLHSIDVTGYNERQISTPTEASDPAWSPLLP | not soluble |
| MGSDKIHHHHHHENLYFQGMNTIDIAKSYITAIQTGDHATLGSIISPDVIWHQPGNHQFSGTHRGMAVVGPMLGKMMEVSNGTFAISRADDYMASGDWVAITLEFSGQANGVTLKQAGVDLLRIEDGKIVEVRLFSADQTQEDAFWGR | soluble |
| MGSDKIHHHHHHENLYFQGMQVIKQKLTATCAQLTGYLHQPDTNAHQTNLPAIIIVPGGSYTHIPVAQAESLAMAFAGHGYQAFYLEYTLLTDQQPLGLAPVLDLGRAVNLLRQHAAEWHIDPQQITPAGFSVGGHIVALYNDYWATRVATELNVTPAMLKPNNVVLGYPVISPLLGFPKDDATLATWTPTPNELAADQHVNSDNQPTFIWTTADDPIVPATNTLAYATALATAKIPYELHVFKHGPHGLALANAQTAWKPDANQPHVAHWLTLALEWLADNR | soluble |
| MGSDKIHHHHHHENLYFQGMSVAHENARRIISDILGKQNIERVWFVGCGGSLTGFWPGKYFLDCEASKLAVGYITSNEFVHATPKALGKNSVVILASQQGNTAETVAAARVAREKGAATIGLVYQPDTPLCEYSDYIIEYQWARYPETVDPAQQKAAYSLWLALEILAQTEGYAQYDELVSAFGRFSDVVHGAQRQVQEDAQRFAAEWKDEKVVYMMGSGPSFGAAHQESICILLEMQWINSASIHSGEYFHGPFEITEPGTPFILLQSSGRTRPLDDRAIRFIERYQGKLQLIDADKLGIQDLSTDVGEYFCGLLHNCVLDVYNLALATARNHPLTTRRYMWKVEY | soluble |
| MGSDKIHHHHHHEVYIFTSHREPALDGLHYLYSYDGYHWDSIAGSWLKPEIGNKTPYYNYFTKQTEEQKYAPNSMMRDPSMTQGPDGTFHLVWTISWNGEQGFGYASSKDLIHWSEQREIKVMKDSLTNNVWAPEVFYDDEKEQFIVAWSSAIPVERYTAADSLGANKSHRAYYTTTKDFQTFTPAKAFYDPGFNSIDGFIVKRDKNDYVLIIKDNRKPGYSDLFCVSGPSAEGPYADPSVKFAPTYSEGPCAVKVGDEWLIYFDVYREGRFGAVSTKDFKNFTPIDDQISIPQGHKHGTIIEVPESVLLNLKAEEAKRFPQKD | not soluble |

— the DeepSol protein solubility set
